Results published in PMC3227541.

Columns and labels:
[1] = molecular target: fluorescein-labelled single cysteine mutant of arrestin-2 (arrestin-2-S234C on cysteine-less background) (bovine) (UniProt P17870); experiment: FRET or BRET
[2] = molecular target: fluorescein-labelled single cysteine mutant of arrestin-3 (arrestin-3-L101C on cysteine-less background) (bovine) (UniProt P32120); experiment: FRET or BRET
Chain of UniProt P32120 (P32120 whole entry L101C, stated change not applied): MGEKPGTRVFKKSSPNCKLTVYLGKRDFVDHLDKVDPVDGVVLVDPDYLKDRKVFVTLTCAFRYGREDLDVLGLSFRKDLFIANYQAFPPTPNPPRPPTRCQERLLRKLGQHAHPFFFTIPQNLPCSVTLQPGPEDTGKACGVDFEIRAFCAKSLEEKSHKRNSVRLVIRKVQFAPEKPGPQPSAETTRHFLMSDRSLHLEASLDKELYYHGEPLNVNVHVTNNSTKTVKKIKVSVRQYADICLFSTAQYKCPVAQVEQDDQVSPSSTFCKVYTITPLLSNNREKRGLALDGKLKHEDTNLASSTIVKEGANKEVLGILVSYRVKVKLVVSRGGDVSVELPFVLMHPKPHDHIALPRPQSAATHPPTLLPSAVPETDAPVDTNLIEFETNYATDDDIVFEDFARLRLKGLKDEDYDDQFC

Chain of UniProt P17870 (P17870 whole entry S234C, stated change not applied): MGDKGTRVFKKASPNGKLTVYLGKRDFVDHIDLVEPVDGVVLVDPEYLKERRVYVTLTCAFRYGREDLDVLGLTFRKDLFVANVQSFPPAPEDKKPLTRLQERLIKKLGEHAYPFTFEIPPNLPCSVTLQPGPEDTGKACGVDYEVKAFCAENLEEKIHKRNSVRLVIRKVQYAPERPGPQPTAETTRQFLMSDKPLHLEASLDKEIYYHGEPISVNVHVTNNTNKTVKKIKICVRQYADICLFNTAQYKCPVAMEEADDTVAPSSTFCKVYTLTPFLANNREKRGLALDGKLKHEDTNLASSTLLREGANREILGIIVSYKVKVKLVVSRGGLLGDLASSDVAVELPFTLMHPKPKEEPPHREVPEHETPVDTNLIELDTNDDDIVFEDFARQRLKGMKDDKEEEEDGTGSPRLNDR

Alexa-568-labeled JNK3α2-His (from UniProt P53779 1-464) (enzyme)
Kd [1]: 6.1 µM
Kd [2]: 4.4 µM
